Results published in patent US20220324988A1 (NANKAI UNIVERSITY, published 2022).

T1: human OX40 (Acrobiosystems, OX 0-H5224) (human, UniProt P43489 29-216)
T1 construct: Bought protein
T1 sequence (looked up): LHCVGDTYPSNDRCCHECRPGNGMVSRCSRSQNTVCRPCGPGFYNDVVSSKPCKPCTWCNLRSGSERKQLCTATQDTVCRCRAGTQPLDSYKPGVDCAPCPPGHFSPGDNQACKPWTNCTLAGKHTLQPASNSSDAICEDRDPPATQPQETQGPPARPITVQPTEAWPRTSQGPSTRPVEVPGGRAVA


Assays:
[1] = molecular target: T2, human CD40 recombinant protein (Acrobiosystems, CD 0-H5228) (human, UniProt P25942 21-193); experiment: direct ELISA, coated human CD40 1 µg/ml, anti-human Fc-HRP
T2 construct: Bought protein
Description: The antibodies were incubated at room temperature for 30 min, and washed 8 times with 0.05% PBS-Tween.

[2] = molecular target: T3, human CD40 expressed on cells (human, UniProt P25942 21-277); experiment: cell-based or functional assay
[3] = molecular target: T2, human CD40 recombinant protein …; experiment: SPR (Biacore T200), antibody captured on Protein A chip, CD40 as analyte
Description: The antigen to be tested, i.e. human CD40 recombinant protein (Acrobiosystems, CD 0-H5228) was diluted gradiently with a Running buffer (HBS-EP+, GE) at concentrations of 2 μM, 1 μM, 500 nM, 250 nM, 125 nM, 62.5 nM, 31.25 nM. The above-mentioned CD40 with different concentrations was flowed through the chip on which the antibody was captured at a flow rate of 30 μL/min for 120 s of binding, and then the Running buffer was flowed through the chip at a flow rate of 30 μL/min for 240 s, with the antigen dissociating gradually from the chip on which the antibody was captured. Data processing was performed using BIAevaluation software S200, the necessary software of Biacore T200 instrument and binding constants (Ka), dissociation constants (Kd), and equilibrium dissociation constants (KD) were calculated.

[4] = molecular target: T3, human CD40 expressed on cells; experiment: flow cytometry on 293FT cells expressing human CD40
Description: (§1) Cells expressing Rhesus monkey CD40 and human CD40, respectively, were obtained after 48 h of expression.
(§2) GraphPad Prism 6.0 was used to fit the curves and calculate EC50.

[5] = molecular target: T4, Rhesus monkey CD40 expressed on 293FT cells (Rhesus monkey (Macaca mulatta), UniProt F6SNI1 21-278); experiment: flow cytometry on 293FT cells expressing Rhesus CD40
T4 construct: whole, on cells; also called Rhesus CD40
Description: as §1, §2

[6] = molecular target: T1, human OX40 (Acrobiosystems, OX 0-H5224); experiment: direct ELISA, coated human OX40 1 µg/ml, anti-human Fc-HRP
Description: (§3) PBS solutions containing 1 μg/ml of human OX40 (Acrobiosystems, OX 0-H5224), 4-1BB (Acrobiosystems, 41B-H5227), GITR (Acrobiosystems, GIR-H5228) and CD40 (Acrobiosystems, CD 0-H5228) were coated on the ELISA plates and incubated overnight at 4° C. […] After 30 mins of incubation at room temperature, washing was carried out for 8 times with 0.05% PBS-Tween.

[7] = molecular target: T5, human 4-1BB (Acrobiosystems, 41B-H5227) (human, UniProt Q07011 24-186); experiment: direct ELISA, coated human 4-1BB 1 µg/ml, anti-human Fc-HRP
T5 construct: Bought protein
Description: as §3

T2 sequence (P25942 21-193 limits assumed): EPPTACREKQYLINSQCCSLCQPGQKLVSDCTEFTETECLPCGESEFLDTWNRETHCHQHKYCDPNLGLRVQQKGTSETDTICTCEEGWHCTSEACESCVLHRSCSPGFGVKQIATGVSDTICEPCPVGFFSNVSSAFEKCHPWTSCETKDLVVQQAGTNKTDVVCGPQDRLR
T3 sequence (P25942 21-277): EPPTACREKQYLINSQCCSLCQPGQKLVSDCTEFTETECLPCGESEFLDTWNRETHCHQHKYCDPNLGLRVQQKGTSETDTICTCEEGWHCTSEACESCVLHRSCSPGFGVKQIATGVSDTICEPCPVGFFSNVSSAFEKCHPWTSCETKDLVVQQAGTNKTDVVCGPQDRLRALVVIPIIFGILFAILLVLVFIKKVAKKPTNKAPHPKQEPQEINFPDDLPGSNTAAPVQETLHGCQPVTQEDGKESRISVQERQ
T5 sequence (Q07011 24-186): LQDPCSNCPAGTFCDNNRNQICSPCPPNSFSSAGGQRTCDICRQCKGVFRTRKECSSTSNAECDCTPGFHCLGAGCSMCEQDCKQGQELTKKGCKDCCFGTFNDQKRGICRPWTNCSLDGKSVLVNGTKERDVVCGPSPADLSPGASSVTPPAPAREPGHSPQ

Row | Kd [3] [nM] | koff [3] [s⁻¹] | kon [3] [M⁻¹ s⁻¹] | EC50 of activation of the NF-kB-GFP+hCD40 reporter cell line, cross-linked with goat anti-human Fc [2] [nM] | fold improvement of reporter cell activity against wild type NK003 [2] [times] | EC50 of activation of the NF-κB-GFP+hCD40 reporter cell line, cross-linked with goat anti-human Fc [2] [nM] | Binder | further results
1 |  |  |  |  |  |  | HEL (antibody, human IgG1, kappa, V domains shown, IgG1 negative control antibody; also called negative control HEL; HEL control antibody) VH: EVQLEQSGAELMKPGASVKISCKATGYTFTTYWIEWIKQRPGHSLEWIGEILPGSDSTYYNEKVKGKVTFTADASSNTAYMQLSSLTSEDSAVYYCARGDGFYVYWGQGTTLTVSS VL: DIELTQSPATLSVTPGDSVSLSCRASQSISNNLHWYQQKSHESPRLLIKYTSQSMSGIPSRFSGSGSGTDFTLSINSVETEDFGVYFCQQSGSWPRTFGGGTKLDIKR | binding result [1]: no binding (tested: 500 nM)
2 | 440 | 0.039 | 88700 |  |  |  | NK004 (antibody, human IgG1, kappa, V domains shown, also called antibody NK004) VH: QVQLVESGGGLVQPGRSLRISCAGSGFTFGDSAMHWVRQAPGKGLEWVSGISRNSDTIVYADSVKGRFTISRDNAKNSLYLQMNSLRAEDTALYYCARRSGDHHAMDVWGPGTTVTVSS VL: ETTLTQSPATLSLSPGERATLSCRASQSVNTYLAWYQQKPGQAPRLLMYDSSSRATGIPDRFSGSGSGTDFTLTISRLEPEDFAVYYCQQYSTVPLTFGGGTKLEIKR | EC50 of activation of the NF-κB-GFP+hCD40 reporter cell line, with the addition of the secondary antibody [2]: 4 nM; EC50 (read off the curve) [1]: ~0.7 nM
3 |  |  |  | 0.3 | ~10 |  | NK003-AM-18 (antibody, human IgG1, kappa, V domains shown) VH: not shown VL: DVVMTQSPLSLPVTPGESATISCRSSQSLLYSNGYNYLDWYLLKPGQSPQLLIYLGSNRASGVPDRFSGSGSGTDFTLKISRVEAEDVGLYYCMQQLEQPYTFGQGTKLEIKR | 
4 |  |  |  |  |  | 0.35 | NK003-AM-18-EP1 (antibody, human IgG1, kappa, V domains shown) VH: not shown VL: DVVMTQSPLSLPVTPGESATISCRSSQSLLYSNGYNYLDWYLLKPGQSPQLLIYLGSNRASGVPDRFSGSGSGTDFTLKISRVEAEDVGLYYCMQQLEQPYTFGQGTKLEIKR | 
5 |  |  |  | 0.25 | ~10 |  | NK003-AM-9 (antibody, human IgG1, kappa, V domains shown) VH: not shown VL: DVVMTQSPLSLPVTPGESATISCRSSQSLLYSNGYNYLDWYLLKPGQSPQLLIYLGSNRASGVPDRFSGSGSGTDFTLKISRVEAEDVGLYYCMNGLEVPYTFGQGTKLEIKR | 
6 | 331 | 0.0121 | 36700 |  |  | 2 | NK003 (antibody, human IgG1, kappa, V domains shown, also called antibody NK003; wild type NK003) VH: not shown VL: DVVMTQSPLSLPVTPGESATISCRSSQSLLYSNGYNYLDWYLLKPGQSPQLLIYLGSNRASGVPDRFSGSGSGTDFTLKISRVEAEDVGLYYCMQGLETPYTFGQGTKLEIKR | EC50 of apoptosis of Raji cells (CD95 expression, MFI), cross-linked with goat anti-human Fc [2]: 2.6 nM; EC50 of apoptosis of Ramos cells (CD95 expression, MFI), cross-linked with goat anti-human Fc [2]: 3 nM; EC50 [4]: 10 nM; EC50 [5]: 8 nM; binding result [6]: no binding; binding result [7]: no binding
